From article doi:10.1101/367656

Molecular target: T1, RIG-IΔN (2CARD deletion);RIPLET (Homo sapiens;Homo sapiens, UniProt O95786;Q8IUD6 201-925;1-432, |)
T1 sequence 1: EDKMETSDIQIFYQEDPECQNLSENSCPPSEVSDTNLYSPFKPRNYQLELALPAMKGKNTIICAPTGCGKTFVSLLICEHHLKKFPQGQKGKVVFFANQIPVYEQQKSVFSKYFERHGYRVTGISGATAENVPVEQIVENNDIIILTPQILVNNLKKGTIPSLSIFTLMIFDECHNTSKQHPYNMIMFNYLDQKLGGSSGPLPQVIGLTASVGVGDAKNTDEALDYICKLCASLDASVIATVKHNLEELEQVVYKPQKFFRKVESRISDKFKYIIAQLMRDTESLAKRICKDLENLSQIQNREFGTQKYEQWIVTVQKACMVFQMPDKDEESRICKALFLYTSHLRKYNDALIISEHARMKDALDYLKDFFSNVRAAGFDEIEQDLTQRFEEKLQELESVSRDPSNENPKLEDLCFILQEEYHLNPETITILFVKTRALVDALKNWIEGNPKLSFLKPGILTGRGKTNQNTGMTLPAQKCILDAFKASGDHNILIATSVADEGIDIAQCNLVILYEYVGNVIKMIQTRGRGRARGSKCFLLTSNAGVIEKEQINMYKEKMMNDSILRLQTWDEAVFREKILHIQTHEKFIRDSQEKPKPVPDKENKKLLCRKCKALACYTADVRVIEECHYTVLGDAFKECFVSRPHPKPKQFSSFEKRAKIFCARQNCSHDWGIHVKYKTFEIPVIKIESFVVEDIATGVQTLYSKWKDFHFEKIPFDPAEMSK
T1 sequence 2: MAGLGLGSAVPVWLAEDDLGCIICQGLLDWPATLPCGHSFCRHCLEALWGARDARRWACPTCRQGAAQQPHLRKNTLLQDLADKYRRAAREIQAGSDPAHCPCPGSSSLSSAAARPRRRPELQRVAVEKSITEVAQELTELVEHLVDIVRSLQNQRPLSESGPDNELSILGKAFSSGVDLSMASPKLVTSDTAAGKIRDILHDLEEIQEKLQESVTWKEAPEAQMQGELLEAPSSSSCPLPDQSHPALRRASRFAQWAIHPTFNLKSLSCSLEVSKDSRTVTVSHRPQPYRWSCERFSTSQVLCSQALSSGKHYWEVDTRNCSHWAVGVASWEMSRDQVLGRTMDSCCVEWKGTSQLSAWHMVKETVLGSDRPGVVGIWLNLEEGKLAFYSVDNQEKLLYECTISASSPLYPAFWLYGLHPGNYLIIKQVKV
Experiment: EMSA

B1: 21 bp dsRNA (dsRNA)
RNA 1: GAGUCACGACGUUGUAAAAAA
RNA 2: UUUUUUACAACGUCGUGACUC
modifications: 5'ppp
B1: binds.
